PMC6710073 (Nature chemical biology, 2019)
Where two headings read alike, the source gives them in different places. Non-standard residues stand in square brackets, D forms with d. No end group written: not given here. Cba = N[C@@H](CC1CCC1)C(=O)O

Columns and labels:
Assay in all cases: BLI
[1] = target: T1, SUMO-25–109MDM2 (UniProt Q00987 25-109)
[2] = target: T1, SUMO-25–109MDM2; remark: listed apart in the source
[3] = target: T1, SUMO-25–109MDM2; remark: listed apart in the source

**Q.** Does LTFEHYWAQFTSK (also: biotinylated, position not given here) [compound 6] bind [1]?
**A.** binds

**Q.** Does GSGSGSGSGSGSSQETFSDLWKLLPEN (not fully specified; D-biotin on its N terminus) [biotinylated 118: modified 15–29 p53 peptide with an N-terminal Gly-Ser linker] bind [2]?
**A.** binds

**Q.** LTFEHY[hexylalanine]AQ[Cba]TSK [compound 37] was tested. Which Kd [3] did it give?
**A.** 0.5 nM
